Experimental findings from PMC6331412, “Protein Disulfide Isomerase Modulates the Activation of Thyroid Hormone Receptors” (Frontiers in Endocrinology, 2018) are described below.

Primed or numbered codes have the meaning given here. Ends that are not written are not given here. FITC′ = fluorescein isothiocyanate label Some results are limits rather than exact numbers.

For assay [1], the target named is Fluorescein-SRC1–1 Coactivator Peptide 3. Description: fluorescence polarisation; TR+T3 or the complex TR+T3:PDIA1 titrated from 1 to 7,000 nM into 50 nM fluorescein-SRC1 peptide; buffer A or B; triplicate. On the technique in general: Polarisation of emitted light reports the rotation of a fluorescent probe.
Assay [2] concerns the target hTRβΔAB (amino acids 102–461) labelled with FITC (human) (UniProt P10828). Description: fluorescence polarisation; PDIA1 titrated from 0.012 to 25 μM into 50 nM TR-FITC, without T3; 20 mM sodium phosphate pH 7.4, 150 mM NaCl, 5 mM MgCl2, 1 mM DTT; 20°C; Hill fit.
The target of assay [3] is hTRα full length labelled with FITC (human) (UniProt P10827). Described as above.
The target of assay [4] is hTRα full length, recombinant (human) (UniProt P10827). Description: SEC; analytical gel filtration, Superdex 200 HR 10/300, buffer A or B with 150 mM NaCl and 2 mM DTT, 0.5 mL/min; hydrodynamic radii from calibration standards; proteins alone and mixed. For orientation: In gel filtration, larger molecules generally elute earlier.
The target in assay [5] is hTRβΔAB (amino acids 102–461), recombinant (human) (UniProt P10828). The description is as above.
The target in assay [6] is hTRβΔAB (amino acids 102–461) labelled with FITC (human) (UniProt P10828). Description: fluorescence polarisation; PDIA1 titrated from 0.012 to 25 μM into 50 nM TR-FITC pre-incubated with 3 times molar excess of T3; 20 mM sodium phosphate pH 7.4, 150 mM NaCl, 5 mM MgCl2, 1 mM DTT; 20°C; Hill fit.
The target in assay [7] is hTRα full length labelled with FITC (human) (UniProt P10827). The assay is described as above.
In assay [8] the target is hTRβΔAB (amino acids 102–461) labelled with FITC (human) (UniProt P10828). Description: fluorescence polarisation; oxidised PDIA1 (pre-incubated with 0.5 mM H2O2 for 30 min) titrated from 0.012 to 25 μM into 50 nM TR-FITC; 20 mM sodium phosphate pH 7.4, 150 mM NaCl, 5 mM MgCl2, no DTT in the buffer; with and without T3 by the methods, not given for the values.
Assay [9] concerns the target hTRα full length labelled with FITC (human) (UniProt P10827). Described as above.
Assay [10] deals with hTRβΔAB (amino acids 102–461) labelled with FITC (human) (UniProt P10828). Description: fluorescence polarisation; reduced PDIA1 (pre-incubated with 0.5 mM DTT for 30 min) titrated from 0.012 to 25 μM into 50 nM TR-FITC; 20 mM sodium phosphate pH 7.4, 150 mM NaCl, 5 mM MgCl2, no DTT in the buffer; with and without T3 by the methods, not given for the values.
Assay [11] concerns the target hTRα full length labelled with FITC (human) (UniProt P10827). The description is as above.
For assay [12], the target named is T1, hTRβΔAB (amino acids 102–461), recombinant (human, UniProt P10828 102-461).
T1 construct: numbers fit TRβ1 (461 aa); Unlabelled protein, used in SEC, DLS and, pre-incubated with T3, in the SRC1 anisotropy; also called TRβDL; source: E. coli BL21(DE3), purified (Talon resin, SEC Superdex 75)
T1 sequence (looked up): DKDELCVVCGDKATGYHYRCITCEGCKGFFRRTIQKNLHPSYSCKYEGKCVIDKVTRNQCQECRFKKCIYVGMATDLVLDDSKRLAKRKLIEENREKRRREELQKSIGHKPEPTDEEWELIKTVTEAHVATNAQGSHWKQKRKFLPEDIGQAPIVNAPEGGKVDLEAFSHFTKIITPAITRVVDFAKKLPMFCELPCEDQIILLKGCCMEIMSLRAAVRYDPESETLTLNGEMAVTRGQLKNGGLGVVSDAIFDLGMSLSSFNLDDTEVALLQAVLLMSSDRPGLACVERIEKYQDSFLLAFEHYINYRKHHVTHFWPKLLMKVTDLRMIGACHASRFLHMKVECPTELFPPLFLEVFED
Description: fluorescence polarisation; TR+T3 or the complex TR+T3:PDIA1 titrated from 1 to 7,000 nM into 50 nM fluorescein-SRC1 peptide; buffer A or B; triplicate. The settings on record: both partners purified.

“TRβ+T3:PDIA1 complex (from UniProt P10828 102-461; P07237 18-508)” showed a Kd in [1] of 390 nM.

The molecule “hTRα full length, recombinant (from UniProt P10827-2 1-410) (receptor)” registered a Kd in assay [1] of 290 nM.

Regarding “hPDIA1 full length, recombinant (from UniProt P07237 18-508) (enzyme)”, the Kd in [2] was 2710 nM; in assay [3], 2050 nM; in assay [6], 2810 nM; in assay [7], 1970 nM; in assay [8] it was greater than 102000 nM; in assay [9], 7900 nM. Further, the dissociation constant Kd in [10] came to 4540 nM; in assay [11] it was 10700 nM. Also, the stoichiometry N in [4] and in assay [5] was 1 in each case.

In assay [1], “TRα+T3:PDIA1 complex (from UniProt P10827-2 1-410; P07237 18-508)” showed a Kd of 700 nM.

B1: Fluorescein-SRC1–1 Coactivator Peptide 3 (peptide)
peptide: {FITC′}-KYSQTSHKLVQLLTTTAEQQL
notes: also called SRC1 peptide; CoA peptide; source: bought: Life-technologies
On to B1, for which the Kd in [12] amounted to 680 ± 60 nM.

A word on the Kd: it is the constant that tells how readily two partners part at equilibrium. A word on the stoichiometry N: it is a count of units in the complex or per binding partner.
